Assay results reported in patent US12227551B2, “Membrane bound IL12 compositions and methods for tunable regulation” (Obsidian Therapeutics, Inc., priority 2018, dated 2025).

Legend:
[1] = test system: phospho-STAT4 in GFP+ T cells; experiment: Transactivation: phospho-STAT4 in GFP+ CAR-negative T cells after 1 hour co-culture with CAR-mbIL12 T cells, flow cytometry (Example 6; Table 20); type: cell-based, human
Experimental: Membrane bound IL12 (mbIL12) was expressed in tandem with a CD19-CAR and tested in primary human T cells. On day 0, primary human T cells were stimulated with Dynabeads (T-expander CD3/CD28) at a 3:1 bead:cell ratio in media containing 10% fetal bovine serum (FBS). The next day, lentivirus with mbIL12 in tandem with a CD19-CAR construct was added in the presence of reduced serum (5% FBS). After 7 days of T cell expansion, increasing numbers of CAR+ T cells were cocultured with 10,000 GFP+, CAR-negative T cells. At the end of 1 hour of co-culture, the phospho-STAT4 levels within the GFP+ T cells were quantitated by flow cytometry using reagents and methods from BD. To determine the relative amount of IL12 activity that had accumulated in the T cell supernatants during the hour-long co-culture, cell supernatants from the co-culture were transferred to a new plate of GFP+ T cells and incubated for 1 hour. Phospho-STAT4 levels were measured in the GFP+ T cells incubated with the supernatants from the original co-culture. The transactivation ([…] geometric mean fluorescence (MFI) on GFP+ cells in co-culture) and the bystander effect (pSTAT4 geometric MFI on GFP+ T cells in 1 hour supernatants) for a CAR-IL12+:GFP+ ratio of 64 are shown in Table 20.
The transactivation (pSTAT4 geometric mean fluorescence (MFI) on GFP+ cells in co-culture) and the bystander effect (pSTAT4 geometric MFI on GFP+ T cells in 1 hour supernatants) for the constructs at different ratios are summarized below. For OT-001407, when (a) the CAR-IL12+:GFP+ ratio was 32, the transactivation was 1711 and the bystander effect was −1680, (b) the CAR-IL12+:GFP+ ratio was 16, the transactivation was 1768 and the bystander effect was −1632, (c) the CAR-IL12+:GFP+ ratio was 8, the transactivation was 1433 and the bystander effect was −1603, (d) the CAR-IL12+:GFP+ ratio was 4, the transactivation was 1195 and the bystander effect was −1860, and (e) the CAR-IL12+:GFP+ ratio was 2, the transactivation was 1101 and the bystander effect was −1800. For OT-001356, when (a) the CAR-IL12+:GFP+ ratio was 73.9, the transactivation was 6452 and the bystander effect was −2617, (b) the CAR-IL12+:GFP+ ratio was 37, the transactivation was 6935 and the bystander effect was −1404, (c) the CAR-IL12+:GFP+ ratio was 18.5, the transactivation was 6417 and the bystander effect was −226, (d) the CAR-IL12+:GFP+ ratio was 9.2, the transactivation was 5568 and the bystander effect was −86, (e) the CAR-IL12+:GFP+ ratio was 4.6, the transactivation was 4374 and the bystander effect was −518, and (f) the CAR-IL12+:GFP+ ratio was 2.3, the transactivation was 2839 and the bystander effect was −1093. For OT-001895, when (a) the CAR-IL12+:GFP+ ratio was 34.1, the transactivation was 7699 and the bystander effect was −3724, (b) the CAR-IL12+:GFP+ ratio was 17.1, the transactivation was 7718 and the bystander effect was −2996, (c) the CAR-IL12+:GFP+ ratio was 8.5, the transactivation was 8200 and the bystander effect was −1178, (d) the CAR-IL12+:GFP+ ratio was 4.3, the transactivation was 7172 and the bystander effect was −277, (e) the CAR-IL12+:GFP+ ratio was 2.1, the transactivation was 6095 and the bystander effect was −238, and (f) the CAR-IL12+:GFP+ ratio was 1.1, the transactivation was 4498 and the bystander effect was −136. For OT-002011, when (a) the CAR-IL12+:GFP+ ratio was 75.8, the transactivation was 8086 and the bystander effect was −3531, (b) the CAR-IL12+:GFP+ ratio was 37.9, the transactivation was 8031 and the bystander effect was −2884, (c) the CAR-IL12+:GFP+ ratio was 18.9, the transactivation was 8324 and the bystander effect was −1376, (d) the CAR-IL12+:GFP+ ratio was 9.5, the transactivation was 7765 and the bystander effect was −1133, (e) the CAR-IL12+:GFP+ ratio was 4.7, the transactivation was 6682 and the bystander effect was −566, and (f) the CAR-IL12+:GFP+ ratio was 2.4, the transactivation was 5190 and the bystander effect was −642. […]

[2] = test system: CD19+ Nalm6 tumors; experiment: Nalm6-Luc tumor burden by BLI, mean total flux, NSG mice, B7.1 TM mbIL12 constructs (Example 10; Table 34); type: in vivo
Experimental: To test in vivo anti-tumor activity, experiments were performed in NSG mice. Nalm6 cells were transfected with Redifect Red-Fluc (Perkin Elmer) under selection using Puromycin for ˜2 months to generate a line that stably expresses the luciferase reporter; thereafter named Nalm6-Luc. Ten days before tumor implantation, Nalm6-Luc cells were thawed and cultured in puromycin-containing media. On day 0, cells were counted, resuspended in PBS and injected into NSG mice via tail vein. On day 6, mice were imaged for bioluminescent intensity (BLI) and sorted into groups based on their tumor size ensure that all groups had the same sized tumors. Human T cells were transduced with one of the following constructs as shown in the study design in Table 33:
Next, holding total CAR+ T cell dose constant at 1 million cells per animal, transduced T cells were intravenously infused into mice on day 7. Tumors were monitored in mice using BLI and the mean of the Total Flux (photons/second) was calculated for each group as an indicator of tumor burden (Table 34). In order to track the trans effect of IL12 expressing CART cells on that lack expression of IL12, 10 million GFP+ T cells (negative for IL12) were co-infused with the IL12-expressing CAR+ T cells, and peripheral blood draws taken over time to evaluate the effect of IL12 on phenotypic changes in GFP+ T cells by flow cytometry analysis.

B1: OT-001356: CD19 CAR; stop; IRES; secreted IL12 (p40 23-328; (G4S)3; p35 57-253); nucleic acid SEQ ID NO: 482 (protein)
chain: IWELKKDVYVVELDWYPDAPGEMVVLTCDTPEEDGITWTLDQSSEVLGSGKTLTIQVKEFGDAGQYTCHKGGEVLSHSLLLLHKKEDGIWSTDILKDQKEPKNKTFLRCEAKNYSGRFTCWWLTTISTDLTFSVKSSRGSSDPQGVTCGAATLSAERVRGDNKEYEYSVECQEDSACPAAEESLPIEVMVDAVHKLKYENYTSSFFIRDIIKPDPPKNLQLKPLKNSRQVEVSWEYPDTWSTPHSYFSLTFCVQVQGKSKREKKDRVFTDKTSATVICRKNASISVRAQDRYYSSSWSEWASVPCSGGGGSGGGGSGGGGSRNLPVATPDPGMFPCLHHSQNLLRAVSNMLQKARQTLEFYPCTSEEIDHEDITKDKTSTVEACLPLELTKNESCLNSRETSFITNGSCLASRKTSFMMALCLSSIYEDLKMYQVEFKTMNAKLLMDPKRQIFLDQNMLAVIDELMQALNFNSETVPQKSSLEEPDFYKTKIKLCILLHAFRIRAVTIDRVMSYLNASGS
- transactivation (pSTAT4 geometric MFI on GFP+ cells in co-culture) ([1]; CAR-IL12+:GFP+ ratio 2.3): 2839
- transactivation (pSTAT4 geometric MFI on GFP+ cells in co-culture) ([1]; CAR-IL12+:GFP+ ratio 4.6): 4374
- transactivation (pSTAT4 geometric MFI on GFP+ cells in co-culture) ([1]; CAR-IL12+:GFP+ ratio 9.2): 5568
- transactivation (pSTAT4 geometric MFI on GFP+ cells in co-culture) ([1]; CAR-IL12+:GFP+ ratio 18.5): 6417
- transactivation (pSTAT4 geometric MFI on GFP+ cells in co-culture) ([1]; CAR-IL12+:GFP+ ratio 37): 6935
- transactivation (pSTAT4 geometric MFI on GFP+ cells in co-culture) ([1]; CAR-IL12+:GFP+ ratio 73.9): 6452
- Transactivation ([1]; CAR-IL12+:GFP+ ratio of 64, pSTAT4 geometric MFI on GFP+ cells, 1 hour co-culture): 6452
- Mean Total Flux (Nalm-6 Tumor Burdon) ([2]; day 6 post tumor implant, day −1 post T cell transfer (before infusion), 1 million CAR+ T cells): 2667500 photons/second
- Mean Total Flux (Nalm-6 Tumor Burdon) ([2]; day 15 post tumor implant, day 8 post T cell transfer): 72220000 photons/second
- Mean Total Flux (Nalm-6 Tumor Burdon) ([2]; day 19 post tumor implant, day 12 post T cell transfer): 3141750 photons/second
- Mean Total Flux (Nalm-6 Tumor Burdon) ([2]; day 22 post tumor implant, day 15 post T cell transfer): 1001125 photons/second
- Mean Total Flux (Nalm-6 Tumor Burdon) ([2]; day 27 post tumor implant, day 20 post T cell transfer): 991750 photons/second
- Mean Total Flux (Nalm-6 Tumor Burdon) ([2]; day 30 post tumor implant, day 23 post T cell transfer): 797000 photons/second
- Mean Total Flux (Nalm-6 Tumor Burdon) ([2]; day 33 post tumor implant, day 26 post T cell transfer): 887000 photons/second
- Mean Total Flux (Nalm-6 Tumor Burdon) ([2]; day 36 post tumor implant, day 29 post T cell transfer): 627875 photons/second
- Mean Total Flux (Nalm-6 Tumor Burdon) ([2]; day 41 post tumor implant, day 34 post T cell transfer): 697500 photons/second
